Experimental data published in patent US20120316071A1 (published 2012).
Positions count from the first letter of the chain named. Numbers in names are those of the source.

B1: Fab VH1-46_IGHD6-6*01_IGHJ1*01 S102A/S103P/S104F/H111F N52L/S54T/G56H & L6_IGKJ1*01 S28N/S30D/S31H S52L/A55G (Fab, V domains shown)
VH: QVQLVQSGAEVKKPGASVKVSCKASGYTFTSYYMHWVRQAPGQGLEWMGIILPTGHSTSYAQKFQGRVTMTRDTSTSTVYMELSSLRSEDTAVYYCAREEYAPFSAEYFQFWGQGTLVTVSS
VL: EIVLTQSPATLSLSPGERATLSCRASQNVDHYLAWYQQKPGQAPRLLIYDALNRGTGIPARFSGSGSGTDFTLTISSLEPEDFAVYYCQQRSNWPPWTFGQGTKVEIKR
notes: Fab expressed in E. coli: VH joined to CH1 from Plasmid A (His6 and Flag tags), VL joined to kappa CL from Plasmid C; also called H:APFF LTH & L:NDH LG
B2: Fab VH1-46_IGHD6-6*01_IGHJ1*01 S102A/S103P/S104F/H111F I51A/N52L/S54T/G56H & L6_IGKJ1*01 S28N/S30D/S31H (Fab, V domains shown)
VH: B1 VH with I51A
VL: B1 VL with L52S, G55A
notes: Fab expressed in E. coli: VH joined to CH1 from Plasmid A (His6 and Flag tags), VL joined to kappa CL from Plasmid C; also called H:APFF ALTH & L:NDH
B3: Fab VH1-46_IGHD6-6*01_IGHJ1*01 S102A/S103P/S104F/H111F I51A/N52L/S54T/G56H & L6_IGKJ1*01 S28N/S30D/S31H S52L/A55G (Fab, V domains shown)
VH: B1 VH with I51A
VL: B1 VL
notes: Fab expressed in E. coli: VH joined to CH1 from Plasmid A (His6 and Flag tags), VL joined to kappa CL from Plasmid C; also called H:APFF ALTH & L:NDH LG
B4: Fab VH1-46_IGHD6-6*01_IGHJ1*01 S102A/S103P/S104F/H111F I51A/N52L/S54T/G56H & L6_IGKJ1*01 S28N/S30D/S31H S52L/A55S (Fab, V domains shown)
VH: B1 VH with I51A
VL: B1 VL with G55S
notes: Fab expressed in E. coli: VH joined to CH1 from Plasmid A (His6 and Flag tags), VL joined to kappa CL from Plasmid C; also called H:APFF ALTH & L:NDH LS
B5: Fab VH1-46_IGHD6-6*01_IGHJ1*01 S102A/S103P/S104F/H111F I51V/N52L/S54T/G56H & L6_IGKJ1*01 S28N/S30D/S31H (Fab, V domains shown)
VH: B1 VH with I51V
VL: B1 VL with L52S, G55A
notes: Fab expressed in E. coli: VH joined to CH1 from Plasmid A (His6 and Flag tags), VL joined to kappa CL from Plasmid C; also called H:APFF VLTH & L:NDH
B6: Fab VH1-46_IGHD6-6*01_IGHJ1*01 S102A/S103P/S104F/H111F I51V/N52L/S54T/G56H & L6_IGKJ1*01 S28N/S30D/S31H S52L/A55G (Fab, V domains shown)
VH: B1 VH with I51V
VL: B1 VL
notes: Fab expressed in E. coli: VH joined to CH1 from Plasmid A (His6 and Flag tags), VL joined to kappa CL from Plasmid C; also called H:APFF VLTH & L:NDH LG
B7: Fab VH1-46_IGHD6-6*01_IGHJ1*01 S102A/S103P/S104F/H111F I51V/N52L/S54T/G56H & L6_IGKJ1*01 S28N/S30D/S31H S52L/A55S (Fab, V domains shown)
VH: B1 VH with I51V
VL: B1 VL with G55S
notes: Fab expressed in E. coli: VH joined to CH1 from Plasmid A (His6 and Flag tags), VL joined to kappa CL from Plasmid C; also called H:APFF VLTH & L:NDH LS
B8: Fab VH1-46_IGHD6-6*01_IGHJ1*01 S102A/S103P/S104F/H111F N52L/S54T/G56H & L6_IGKJ1*01 S28N/S30D/S31H (Fab, V domains shown)
VH: B1 VH
VL: B1 VL with L52S, G55A
notes: Fab expressed in E. coli: VH joined to CH1 from Plasmid A (His6 and Flag tags), VL joined to kappa CL from Plasmid C; also called H:APFF LTH & L:NDH
B9: Fab VH1-46_IGHD6-6*01_IGHJ1*01 S102A/S103P/S104F/H111F N52L/S54T/G56H & L6_IGKJ1*01 S28N/S30D/S31H S52L/A55S (Fab, V domains shown)
VH: B1 VH
VL: B1 VL with G55S
notes: Fab expressed in E. coli: VH joined to CH1 from Plasmid A (His6 and Flag tags), VL joined to kappa CL from Plasmid C; also called H:APFF LTH & L:NDH LS
B10: Fab VH5-51_IGHD5-18*01>3_IGHJ4*01 G100D & V3-4_IGLJ1*01 (Fab, V domains shown)
VH: EVQLVQSGAEVKKPGESLKISCKGSGYSFTSYWIGWVRQMPGKGLEWMGIIYPGDSDTRYSPSFQGQVTISADKSISTAYLQWSSLKASDTAMYYCARRDYSYGYDYFDYWGQGTLVTVSS
VL: QTVVTQEPSFSVSPGGTVTLTCGLSSGSVSTSYYPSWYQQTPGQAPRTLIYSTNTRSSGVPDRFSGSILGNKAALTITGAQADDESDYYCVLYMGSGISYVFGTGTKVTVL
notes: Fab; VH-CH1 (His6/Flag, Plasmid A) and VL-lambda CL (Plasmid E)
B11: Fab VH5-51_IGHD5-18*01>3_IGHJ4*01 G100K & V3-4_IGLJ1*01 (Fab, V domains shown)
VH: B10 VH with D100K
VL: B10 VL
notes: as for B10
B12: Fab VH5-51_IGHD5-18*01>3_IGHJ4*01 G100R & V3-4_IGLJ1*01 (Fab, V domains shown)
VH: B10 VH with D100R
VL: B10 VL
notes: as for B10

The binders below were run against T1, Recombinant Human DLL4 (human, UniProt Q9NR61 27-524) (assay: ELISA on plate-coated DLL4, Fab at 6.67 nM (3-fold serial dilution)).
T1 construct: Bought recombinant human DLL4 (R&D Systems 1506-D4/CF); also called delta-like protein 4; rHuman DLL4
B1 gave an ELISA signal of 0.88.
B2 showed an ELISA signal of 0.232.
B3 gave an ELISA signal of 0.212.
B4 was tested, and the ELISA signal was 0.282.
B5 gave an ELISA signal of 0.776.
B6 was tested, and the ELISA signal was 0.916.
B7 showed an ELISA signal of 0.747.
With B8 the ELISA signal was 0.739.
B9 was tested, and the ELISA signal was 0.916.

These binders were tested against T1, Recombinant Human DLL4 (assay: ELISA on plate-coated DLL4, Fab at 20 nM (3-fold serial dilution)).
B1 gave an ELISA signal of 1.01.
Binder B2 has an ELISA signal of 0.391.
In the case of B3, the ELISA signal is reported as 0.39.
B4 gave an ELISA signal of 0.458.
B5 showed an ELISA signal of 0.979.
Work on B6 yielded an ELISA signal of 1.06.
Work on B7 yielded an ELISA signal of 0.91.
For B8, the ELISA signal was 0.863.
Binder B9 has an ELISA signal of 1.05.

The binders below were run against T2, Recombinant Human DLL4 (human, UniProt Q9NR61 27-524) (assay: ECL (MSD) 96-well plate assay, DLL4 coated at 30 ug/mL, Fab 0.1 uM; signal over blank).
T2 construct: Bought recombinant human DLL4 (R&D Systems Cat#1506-D4/CF), coated on the plate; also called delta-like protein 4; rHuman DLL4
B10 showed a Signal/Noise of 5.8.
Binder B11 has a Signal/Noise of 134.
Binder B12 has a Signal/Noise of 90.6.

The binders below were run against T2, Recombinant Human DLL4 (assay: ECL (MSD) 96-well plate assay, DLL4 coated at 15 ug/mL, Fab 0.02 uM; signal over blank).
Binder B10 has a Signal/Noise of 2.
In the case of B11, the Signal/Noise is reported as 72.6.
Binder B12 has a Signal/Noise of 39.9.

These binders were tested against T1, Recombinant Human DLL4 (assay: ECL (MSD) binding assay, Fab on immobilised recombinant human DLL4; Fab concentration not given in the table).
For B1, the “ECL signal” value was 9010.
B2 was tested, and the “ECL signal” value was 1840.
For B3, the “ECL signal” value was 1760.
In the case of B4, the “ECL signal” value is reported as 3720.
B5 was tested, and the “ECL signal” value was 9790.
With B6 the “ECL signal” value was 12200.
In the case of B7, the “ECL signal” value is reported as 8000.
In the case of B8, the “ECL signal” value is reported as 6020.
With B9 the “ECL signal” value was 11500.

These binders were tested against T1, Recombinant Human DLL4 (assay: ELISA on plate-coated DLL4, Fab at 2.22 nM (3-fold serial dilution)).
For B1, the ELISA signal was 0.594.
In the case of B2, the ELISA signal is reported as 0.069.
B3 showed an ELISA signal of 0.069.
For B4, the ELISA signal was 0.04.
With B5 the ELISA signal was 0.608.
Binder B6 has an ELISA signal of 0.755.
For B7, the ELISA signal was 0.523.
B8 gave an ELISA signal of 0.463.
Binder B9 has an ELISA signal of 0.557.

The binders below were run against T1, Recombinant Human DLL4 (assay: ELISA on plate-coated DLL4, Fab at 0.74 nM (3-fold serial dilution)).
In the case of B1, the ELISA signal is reported as 0.368.
Work on B2 yielded an ELISA signal of 0.024.
In the case of B3, the ELISA signal is reported as 0.028.
With B4 the ELISA signal was 0.046.
In the case of B5, the ELISA signal is reported as 0.288.
B6 gave an ELISA signal of 0.397.
B7 showed an ELISA signal of 0.263.
B8 showed an ELISA signal of 0.27.
B9 gave an ELISA signal of 0.398.
